The text below walks through data of the RNAGym collection of RNA variant scans (doi:10.1093/nar/gkz1192).

The labels stand for the following.
B1: CPEB3 Ribozyme (parent)
chain: UAACAGGGGGCCACAGCAGAAGCGUUCACGUCGCAGCCCCUGUCAGAUUCUGGUGAAUCUGCGAAUUCUGCUGUAUAUCUC

In this data set the parent is B1. Description: self-cleavage, relative activity (ratio to wild type); higher = more cleavage; in vitro, sequencing. The gist of the method: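 Relative activity compares each variant's cleaved/total read fraction with that of the unmutated ribozyme. To get these fractions, barcoded CPEB3 ribozyme libraries from rounds of error-prone PCR were transcribed with T7 RNA polymerase for 5 hours at 37°C and then given 15 min of DNase I treatment before EDTA was added. The RNAs were reverse transcribed with template switching and sequenced on Illumina, and DNA sequencing linked barcodes to variants. A minimum of 5 reads applied, and three batches were averaged.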
As to UAACAGGGGGCCACAGCACAAGCGUCCACGUCGCAGCCCCUGUCAGAUUCUGGUGAAUCUGCGAAUUCUGCUGUAUAUCUC [G19C U26C], the self-cleavage came to 0.27.
The same measure for UAACAGGGGGCCACAGCAAAAGCGUUCACGUCGCACCCCCUGUCAGAUUCUGGUGAAUCUGCGAAUUCUGCUGUAUAUCUC [G19A G36C]: 0.14.
For the variant UAACAGGGGGCCACAGCAAAAGCGUUCACGUCGCAGCCCCUGUCAGAUUCUAGUGAAUCUGCGAAUUCUGCUGUAUAUCUC [G19A G52A], the self-cleavage was determined as 0.16.
Next, UAACAGGGGGCCACAGCACAAGCGUUCACGUCGCAGCCCCUGUCAGAUUCUGAUGAAUCUGCGAAUUCUGCUGUAUAUCUC [G19C G53A]: 0.09.
With UAACAGGGGGCCACAGCAAAAGCGUCCACGUCGCAGCCCCUGUCAGAUUCUGGUGAAUCUGCGAAUUCUGCUGUAUAUCUC [G19A U26C], the self-cleavage was found to be 0.31.
Turning to UAACAGGGGGCCACAGCAAAAGCGUUCACGUCGCAGCCCCUGUCAGAUUCUGGUGAAUCUGCGAAUUCUGCUGUAUAUCCC [G19A U80C], the self-cleavage stood at 0.27.
On to UAACAGGGGGCCACAGCAAAAGCGUUCACGUCGCAGCCCCUGUCAGAUUCUGGUGAAUCUGCGAAUUCUGCUGUAUAUCAC [G19A U80A], for which the self-cleavage was determined as 0.58.
Next, UAACAGGGGGCCACAGCAAAAGCGUUCACGUCGCAGCCCCUGUCAGAUUCUGGUGAGUCUGCGAAUUCUGCUGUAUAUCUC [G19A A57G]: 0.26; UAACAGGGGGCCACAGCACAAGCGUUCACGUCGCAGCCCCGGUCAGAUUCUGGUGAAUCUGCGAAUUCUGCUGUAUAUCUC [G19C U41G]: 0.32.
For UAACAGGGGGCCACAGCACAAGCGUUCACGUCGCAGCCCCCGUCAGAUUCUGGUGAAUCUGCGAAUUCUGCUGUAUAUCUC [G19C U41C], the self-cleavage was determined as 0.18.
As to UAACAGGGGGCCACAGCACAAGCGUUCACGUCGCAGCCCCAGUCAGAUUCUGGUGAAUCUGCGAAUUCUGCUGUAUAUCUC [G19C U41A], the self-cleavage was 0.44.
On to UAACAGGGGGCCACAGCAAAAGCGUUCACGUCGCAGCCCCUGUCAGAUUCUGGUGAAUCUGCGAAUUCAGCUGUAUAUCUC [G19A U69A], for which the self-cleavage is 0.14.
Next, UAACAGGGGGCCACAGCAAAAGCGUUCACGUCGCAGCCCCUGUCAGAUUCUGGUGAAUCUGCGAAUUCCGCUGUAUAUCUC [G19A U69C]: 0.13; UAACAGGGGGCCACAGCAAAAGCGUUCACGUCGCAGCCCCUGUCAGAUUCUGGUGAAUCUGCGAAUUCUGCCGUAUAUCUC [G19A U72C]: 0.18; UAACAGGGGGCCACAGCACAAGCGUUCUCGUCGCAGCCCCUGUCAGAUUCUGGUGAAUCUGCGAAUUCUGCUGUAUAUCUC [G19C A28U]: 0.07.
Consider UAACAGGGGGCCACAGCAAAAGCGUUCACGUCGCAGCCCUUGUCAGAUUCUGGUGAAUCUGCGAAUUCUGCUGUAUAUCUC [G19A C40U], for which the self-cleavage amounted to 0.21.
Take UAACAGGGGGCCACAGCAAAAGCGUUCACGUCGCAGCCCGUGUCAGAUUCUGGUGAAUCUGCGAAUUCUGCUGUAUAUCUC [G19A C40G]: the self-cleavage turned out to be 0.1.
With UAACAGGGGGCCACAGCAAAAGCGUUCACGUCGCAGCCCCUGUCAGACUCUGGUGAAUCUGCGAAUUCUGCUGUAUAUCUC [G19A U48C], the self-cleavage was determined as 0.16.
Turning to UAACAGGGGGCCACAGCACAAGCGUUCACCUCGCAGCCCCUGUCAGAUUCUGGUGAAUCUGCGAAUUCUGCUGUAUAUCUC [G19C G30C], the self-cleavage was 0.25.
The same measure for UAACAGGGGGCCACAGCACAAACGUUCACGUCGCAGCCCCUGUCAGAUUCUGGUGAAUCUGCGAAUUCUGCUGUAUAUCUC [G19C G22A]: 0.22; for UAACAGGGGGCCACAGCACAAGCGCUCACGUCGCAGCCCCUGUCAGAUUCUGGUGAAUCUGCGAAUUCUGCUGUAUAUCUC [G19C U25C]: 0.06.
In the case of UAACAGGGGGCCACAGCACAAGCGUUCACGUCGCAGCCCCUGUCAGAUUCUGGUGAAUCUGCGAAUUCUGCUGUUUAUCUC [G19C A75U], the self-cleavage was 0.29.
UAACAGGGGGCCACAGCAAAAGCGUUCACGUCGCAGCCCCUGUCAGAUUCUGGUGAAUCUGCGAAUUCUGCUGUAUAACUC [G19A U78A]: the self-cleavage amounted to 0.47.
On to UAACAGGGGGCCACAGCAAAAGCGUUCAGGUCGCAGCCCCUGUCAGAUUCUGGUGAAUCUGCGAAUUCUGCUGUAUAUCUC [G19A C29G], for which the self-cleavage is 0.24.
Consider UAACAGGGGGCCACAGCAAAAGCGUUCACGUCGCAGCCCCUGACAGAUUCUGGUGAAUCUGCGAAUUCUGCUGUAUAUCUC [G19A U43A], for which the self-cleavage was 0.36.
Next, UAACAGGGGGCCACAGCAAAAGCGUUCACGUAGCAGCCCCUGUCAGAUUCUGGUGAAUCUGCGAAUUCUGCUGUAUAUCUC [G19A C32A]: 0.08; UAACAGGGGGCCACAGCACUAGCGUUCACGUCGCAGCCCCUGUCAGAUUCUGGUGAAUCUGCGAAUUCUGCUGUAUAUCUC [G19C A20U]: 0.4.
Next, UAACAGGGGGCCACAGCACAAGCGUUCACGUCGCAGCCCCUGUCAGAUUCUUGUGAAUCUGCGAAUUCUGCUGUAUAUCUC [G19C G52U]: 0.35.
With UAACAGGGGGCCACAGCACAAGCAUUCACGUCGCAGCCCCUGUCAGAUUCUGGUGAAUCUGCGAAUUCUGCUGUAUAUCUC [G19C G24A], the self-cleavage worked out at 0.11.
Next, UAACAGGGGGCCACAGCAAAAGCGUUCACGUCGCAGCCCCUGUCAGAUUCUGGUGAAUUUGCGAAUUCUGCUGUAUAUCUC [G19A C59U]: 0.17; UAACAGGGGGCCACAGCAAAAGCGUUCACGUCGCAGCCCCUGUCAGAUUCUGGUGUAUCUGCGAAUUCUGCUGUAUAUCUC [G19A A56U]: 0.12; UAACAGGGGGCCACAGCAAAAGCGUUCACGUCGCAGCCCCUGUCAGAUUCUGGUGGAUCUGCGAAUUCUGCUGUAUAUCUC [G19A A56G]: 0.2.
Next, UAACAGGGGGCCACAGCAAAAGCGUUCACGUCGCAGCCCCUGUCAGAUUCUGGUGAAUCUGCGAGUUCUGCUGUAUAUCUC [G19A A65G]: 0.51; UAACAGGGGGCCACAGCACAAGCGUUCACGUCGCAGCCCCUGUCAGAUUCUGGUGAAUCUGCGAAUUUUGCUGUAUAUCUC [G19C C68U]: 0.63.
